Test results: PMC9872726 (Nature cell biology, 2022)

Target: HSPB1 wild-type (human, UniProt P04792 1-205)
Test: NMR titration

HSPB1 wild-type, sequence (P04792 whole entry): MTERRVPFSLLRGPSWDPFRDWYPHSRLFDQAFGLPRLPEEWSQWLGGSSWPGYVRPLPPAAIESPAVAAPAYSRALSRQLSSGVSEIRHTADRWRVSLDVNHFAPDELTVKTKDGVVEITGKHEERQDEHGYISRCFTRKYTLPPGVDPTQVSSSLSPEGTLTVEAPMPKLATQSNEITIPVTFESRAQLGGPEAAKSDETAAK

B1: TDP-43 LCD (domain or fragment, UniProt Q13148 274-414, looked up)
chain: GRFGGNPGGFGNQGGFGNSRGGGAGLGNNQGSNMGGGMNFGAFSINPAMMAAAQAALQSSWGMMGMLASQQNQSGPSGNNQNQGNMQREPNQAFGSGNNSYSGSNSGAAIGWGSASNAGSGSGFNGGFGSSMDSKSSGWGM
B1: binds.
